From patent US7241873B2, “Recombinant anti-osteopontin antibody and use thereof” (Juridical Foundation the Chemo-sero-therapeutic Research …, priority 2001, dated 2007) come the findings set out here.

Changes are numbered by the printed parent chain. No end group written: not given here. *: point of attachment. Biotin = O=C1N[C@H]2[C@H](CS[C@H]2CCCCC(=O)*)N1

The target of assay [1] is T1, biotinylated partial peptide GRGDSVVYGLR of human osteopontin (human).
T1 construct: Captured on a BIACORE sensor chip SA (23 RU)
T1 peptide: Biotin-GRGDSVVYGLR
The assay is described as follows: SPR BIACORE-2000, biotinylated peptide on sensor chip SA, antibody as analyte, global fitting 1:1 (Langmuir). As for the experimental part:
The KD value of the chimera 2K1 antibody was assayed in the following manner. First, a partial peptide GRGDSV-VYGLR (residues 7–17 of SEQ ID NO: 1) of the human osteopontin was biotinylated with a biotinylation kit (Dojindo Corporate). A sensor chip SA was set on BIA-CORE-2000, to bind 23 RU of a ligand (Bin-GRGDSV-VYGLR)(residues 7–17 of SEQ ID NO: 1). […] The data of these sensor grams were analyzed by global fitting at 1:1 (Langmuir) binding by a BIACORE analysis software BIA Evaluation Version 3.0. FIG. 6a is a sensor gram at various concentrations of the murine 2K1 antibody. FIG. 6b is a sensor gram at various concentrations of the chimera 2K1 antibody.
As the results of the measurement, the KD value of the murine 2K1 antibody was 1.2 ×10^-10 M, while the KD value of the chimera 2K1 antibody was 9.2 ×10^-11 M. No reduction of the affinity of the chimera 2K1 antibody was observed due to the chimera preparation of the murine 2K1 antibody.
A general note: SPR reads the build-up and loss of mass on a sensor chip optically.

In another assay the target is T2, GST-OPN-c (human, UniProt P08515 1-218 = GST; P10451 1-287).
T2 construct: Isoform c of human osteopontin; made in E. coli; also called GST fusion protein of human osteopontin-c; not shown: vector-encoded junction between GST and OPN not described
T2 sequence (P08515 1-218, tags or fused parts left off): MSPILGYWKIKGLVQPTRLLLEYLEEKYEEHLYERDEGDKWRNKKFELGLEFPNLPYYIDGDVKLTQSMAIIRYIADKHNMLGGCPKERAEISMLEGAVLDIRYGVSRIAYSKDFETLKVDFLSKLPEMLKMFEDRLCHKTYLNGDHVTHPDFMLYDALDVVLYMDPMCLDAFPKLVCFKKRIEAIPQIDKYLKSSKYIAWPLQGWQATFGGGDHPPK
Briefly: Western blotting. (In western blotting, separated proteins are transferred to a membrane and probed.)

Another assay addresses T3, CHO/OPN-a (human, UniProt P10451 17-314, sugar chain-bound type (glycosylated)).
T3 construct: mature; also called full-length OPN
Briefly: Western blotting.

Assay [2] deals with thrombin-cleaved OPN (human) (UniProt P10451). Briefly: cell-based or functional assay.
Sequence of thrombin-cleaved OPN (human) (P10451 17-168 limits assumed, form in doubt, chain 1 of 2): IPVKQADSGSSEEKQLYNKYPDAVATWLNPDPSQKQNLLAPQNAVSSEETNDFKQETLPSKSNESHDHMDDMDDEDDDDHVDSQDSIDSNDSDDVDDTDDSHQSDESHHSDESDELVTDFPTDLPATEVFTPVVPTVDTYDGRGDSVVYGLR
Sequence of thrombin-cleaved OPN (human) (P10451 169-314 limits assumed, form in doubt, chain 2 of 2): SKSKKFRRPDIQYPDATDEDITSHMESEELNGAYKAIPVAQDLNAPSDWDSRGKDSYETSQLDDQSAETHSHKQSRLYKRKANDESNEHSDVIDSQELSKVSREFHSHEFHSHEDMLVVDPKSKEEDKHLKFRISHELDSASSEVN
The target in assay [3] is T4, BSA-crosslinked osteopontin peptide BSA-CVDTYDGRGDSVVYGLRS (human, also: crosslinked to BSA, linkage chemistry not given here).
T4 construct: Peptide carries an added N-terminal cysteine; immobilized on a microtiter plate as BSA conjugate; also called Peptide 1
T4 peptide: {BSA}-CVDTYDGRGDSVVYGLRS
The assay is described as follows: ELISA on a plate with BSA-CVDTYDGRGDSVVYGLRS, detection with protein A-HRP and TMB, OD450.

A further assay has as its target T5, bovine serum albumin (bovine, UniProt P02769 25-607).
T5 construct: also called BSA
Briefly: ELISA on a plate with BSA alone, detection with protein A-HRP and TMB, OD450. In general terms: ELISA stands for enzyme-linked immunosorbent assay.

Assay [4] addresses BSA-crosslinked osteopontin peptide (BSA-CVDTYDGRGDSVVYGLRS) (Homo sapiens, UniProt P10451). Briefly: ELISA binding to osteopontin peptide. From the text: Based on the concentrations of the humanized 2K1 antibody and the chimera 2K1 antibody as determined in Example 13, the binding activities of the humanized 2K1 antibody and the chimera 2K1 antibody with osteopontin peptide (CVDTYDGRGDSVVYGLRS) (SEQ ID NO: 1) were compared with reference to the ELISA of Kon et al. (Journal of Cellular […]: 420–432 (2002)).
Dilution series of the humanized 2K1 antibody and the chimera 2K1 antibody reacted on a microtiter plate with BSA-crosslinked osteopontin peptide (BSA-CVDTYDGRGDSVVYGLRS)(SEQ ID NO: 1) immobilized thereon. Then, the antibodies bound to BSA-CVDTYDGRGDSVVYGLRS (SEQ ID NO: 1) reacted with protein A-HRP, and finally with TMB (Dojindo Corporate), to measure the absorbance at a wavelength of 450 nm.
Additionally, reaction on a plate with only BSA immobilized thereon as a negative control was also measured in the same manner.
As a negative control, additionally, the binding activity of the chimera 2K1 antibody to BSA (open circle) and the binding activity of the humanized 2K1 antibody to BSA (open square) are also shown.

As usually defined, the Kd is a measure of binding affinity in units of concentration. Low values mean higher affinity, high ones lower affinity.

T5 sequence (P02769 25-607 limits assumed): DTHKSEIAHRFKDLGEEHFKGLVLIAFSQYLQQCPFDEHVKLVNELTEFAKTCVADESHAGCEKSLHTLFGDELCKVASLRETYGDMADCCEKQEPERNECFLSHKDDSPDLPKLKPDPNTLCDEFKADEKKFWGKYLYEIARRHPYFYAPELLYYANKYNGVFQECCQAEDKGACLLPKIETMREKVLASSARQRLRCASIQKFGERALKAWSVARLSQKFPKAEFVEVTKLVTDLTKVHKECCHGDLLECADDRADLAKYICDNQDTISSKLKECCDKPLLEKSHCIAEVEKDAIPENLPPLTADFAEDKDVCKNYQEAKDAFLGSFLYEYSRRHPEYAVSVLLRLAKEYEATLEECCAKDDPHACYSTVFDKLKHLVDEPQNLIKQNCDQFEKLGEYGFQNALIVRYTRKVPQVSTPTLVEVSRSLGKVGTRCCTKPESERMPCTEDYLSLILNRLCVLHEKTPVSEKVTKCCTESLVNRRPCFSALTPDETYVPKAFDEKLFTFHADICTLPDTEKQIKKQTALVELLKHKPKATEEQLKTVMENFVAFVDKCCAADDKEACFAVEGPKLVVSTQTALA
T3 sequence (P10451 17-314): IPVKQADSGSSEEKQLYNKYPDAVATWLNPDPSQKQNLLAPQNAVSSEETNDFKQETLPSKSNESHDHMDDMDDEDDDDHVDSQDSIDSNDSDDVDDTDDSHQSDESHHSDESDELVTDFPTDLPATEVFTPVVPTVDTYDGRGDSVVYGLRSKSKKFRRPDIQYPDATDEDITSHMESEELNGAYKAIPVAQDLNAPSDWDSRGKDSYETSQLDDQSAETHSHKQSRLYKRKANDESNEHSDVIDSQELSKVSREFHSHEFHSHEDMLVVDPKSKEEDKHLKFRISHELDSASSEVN

B1: murine monoclonal antibody 2K1 (antibody, V domains shown)
VH: QVQLQQSGAELVRPGASVKLSCKALGYTFTDYEMHWVKQTPVHGLEWIGAIHPGRGGTAYNQKFKGKATLTADKSSSTAYMELSSLTSEDSAVYYCTRITGYFDVWGAGTTVTVSS
VL: DVLMTQTPLSLPVSLGDQASISCRSSQSIVHSNGNTYLEWYLQKPGQSPKLLIYKVSNRFSGVPDRFSGSGSGTDFTLKISRVEAEDLGVYYCFQGSHVPLTFGAGTKLELKR
notes: also called murine 2K1 antibody; murine antibody 2K1
The molecule B1 had a Kd in assay [1] of 0.12 nM. Also, the binding result with GST-OPN-c was “binds”. Moreover, in the assay with CHO/OPN-a, the binding result is “binds”. In assay [2], this molecule came in with a Mean migrating cell counts per 1 mm^3; monocyte; thrombin-cleaved OPN 10 µg/mL, murine 2K1 antibody 0.4 µg/mL (cells per 1 mm^3) of 258; a Mean migrating cell counts per 1 mm^3; monocyte; thrombin-cleaved OPN 10 µg/mL, murine 2K1 antibody 2 µg/mL (cells per 1 mm^3) of 257; a Mean migrating cell counts per 1 mm^3; monocyte; thrombin-cleaved OPN 10 µg/mL, murine 2K1 antibody 10 µg/mL (cells per 1 mm^3) of 160; a Mean migrating cell counts per 1 mm^3; monocyte; thrombin-cleaved OPN 10 µg/mL, murine 2K1 antibody 50 µg/mL (cells per 1 mm^3) of 75. In assay [2], this molecule registered a Mean migrating cell counts per 1 mm^3; neutrophil; thrombin-cleaved OPN 10 µg/mL, murine 2K1 antibody 0.4 µg/mL (cells per 1 mm^3) of 567; a Mean migrating cell counts per 1 mm^3; neutrophil; thrombin-cleaved OPN 10 µg/mL, murine 2K1 antibody 2 µg/mL (cells per 1 mm^3) of 550; a Mean migrating cell counts per 1 mm^3; neutrophil; thrombin-cleaved OPN 10 µg/mL, murine 2K1 antibody 10 µg/mL (cells per 1 mm^3) of 450; a Mean migrating cell counts per 1 mm^3; neutrophil; thrombin-cleaved OPN 10 µg/mL, murine 2K1 antibody 50 µg/mL (cells per 1 mm^3) of 427.

B2: humanized 2K1 antibody (antibody, V domains shown)
VH: QVQLVQSGAEVKKPGSSVKVSCKASGGTFSDYEMHWVRQAPGQGLEWMGAIHPGRGGTAYNQKFKGRVTITADKSTSTAYMELSSLRSEDTAVYYCARITGYFDVWGQGTTVTVSS
VL: B1 VL with L3V, T7S, S14T, D17Q, Q18P, K50Q, L88V, A105Q, L111I
notes: Human Igγ1 / Igκ constant regions (vectors AG-γ1 and AG-κ); Tested as CHO-DG44 culture supernatant; also called R2K1 antibody
For B2, the binding result in assay [3] is “binds”; with bovine serum albumin, “no binding (tested: 50 ng/ml)”.

B3: mouse-human chimera 2K1 antibody (antibody, V domains shown)
VH: B1 VH
VL: B1 VL
notes: Expressed in CHO-DG44; also called C2K1 antibody; 2K1 chimera antibody
With B3, the binding result in assay [3] is “binds”; with bovine serum albumin, “no binding (tested: 50 ng/ml)”. In assay [1], this molecule registered a Kd of 0.092 nM.

B4: humanized 2K1 antibody: humanized antibody with CDRs of murine 2K1; VH SEQ ID NO: 28, VL SEQ ID NO: 30, human Igγ1/Igκ (antibody, V domains shown)
VH: MDWTWRVFCLLAVAPGAHSQVQLVQSGAEVKKPGSSVKVSCKASGGTFSDYEMHWVRQAPGQGLEWMGAIHPGRGGTAYNQKFKGRVTITADKSTSTAYMELSSLRSEDTAVYYCARITGYFDVWGQGTTVTVSS
VL: MGWSCIILFLVATATGVHSDVVMTQSPLSLPVTLGQPASISCRSSQSIVHSNGNTYLEWYLQKPGQSPQLLIYKVSNRFSGVPDRFSGSGSGTDFTLKISRVEAEDVGVYYCFQGSHVPLTFGQGTKLEIKR
modifications: human IgG1/kappa constant regions
For B4, the “antigen binding activity compared with the original murine 2K1 antibody” value in assay [4] is “identical to that of the original murine 2K1 antibody”. Besides, in assay [4] (ELISA, absorbance 450 nm, FIG. 13), the “binding activity to BSA-CVDTYDGRGDSVVYGLRS” value is “had binding activities”. The “binding activity to BSA (negative control plate)” value in assay [4] (ELISA, plate with only BSA immobilized) was “not to BSA”. Further, in assay [4] (humanized versus chimera 2K1 antibody), the “comparison of binding activities of both antibodies to BSA-CVDTYDGRGDSVVYGLRS” value is “at the same level”.
